Starred links: 1 amine or outer side, 2 acyl side, 3 side chain; linkers in the order of their positions; H or OH if unused. Positions of bridges follow the written chain, without caps; N, C: chain ends. Non-standard residues stand in square brackets, D forms with d. Primed or numbered codes have the meaning given here. No end group written: not given here. Dab(acetyl)″ = 2-amino-4-(acetylamino)butanoic acid, acetyl CH3 carbon bonded to the S of Hcy (S-CH2-C(=O)-NH-), O=C(C[*:3])NCC[C@H](N[*:1])C(=O)[*:2]; Dab(acetyl) = 2-amino-4-acetylamino-butanoic acid residue (N-γ-acetyl-diaminobutyric acid), CC(=O)NCC[C@H](N[*:1])C(=O)[*:2]; Dab(acetyl)(3) = 2-amino-4-(acetylamino)butanoic acid (Dab with N-γ-acetyl), CC(=O)NCC[C@H](N[*:1])C(=O)[*:2]; COCH2 = acetyl group that carries the bridge; hCys = N[C@@H](CCS)C(=O)O; Dab = NCC[C@H](N)C(=O)O
B1: Cyclic peptide 75 (peptide)
peptide: KKKAXTPRGDTFRXA
modifications: not fully specified; KKKA-(Hcy)-TPRGDTFR(Dab(acetyl))A; thioether bond Hcy-Dab(acetyl)
B2: Cyclic peptide 77 (peptide)
peptide: KKKAXISRGDTFRXA
modifications: not fully specified; KKKA-(Hcy)-ISRGDTFR(Dab(acetyl))A; thioether bond Hcy-Dab(acetyl)
B3: Cyclic peptide 84 (peptide)
peptide: KKKGXIPRGDTFAXG
modifications: not fully specified; KKKG-(Hcy)-IPRGDTFA(Dab(acetyl))G; thioether bond Hcy-Dab(acetyl)
B4: Cyclic peptide 69 (peptide)
peptide: KKKGXEPRGDTFRXA
modifications: not fully specified; KKKG-(Hcy)-EPRGDTFR(Dab(acetyl))A; thioether bond Hcy-Dab(acetyl)
B5: Cyclic peptide 70 (peptide)
peptide: KKKGXVPRGDTFRXA
modifications: not fully specified; KKKG-(Hcy)-VPRGDTFR(Dab(acetyl))A; thioether bond Hcy-Dab(acetyl)
B6: Cyclic peptide 136 (peptide)
peptide: KKKAXVPRGDTFAXA
modifications: not fully specified; KKKA(Dab(acetyl))VPRGDTFA-(Pen)-A; thioether bond Dab(acetyl)-Pen
B7: Cyclic peptide 71 (peptide)
peptide: KKKGXLPRGDTFRXA
modifications: not fully specified; KKKG-(Hcy)-LPRGDTFR(Dab(acetyl))A; thioether bond Hcy-Dab(acetyl)
B8: Cyclic peptide 74 (peptide)
peptide: KKKAXVPRGDTFRXA
modifications: not fully specified; KKKA-(Hcy)-VPRGDTFR(Dab(acetyl))A; thioether bond Hcy-Dab(acetyl)
B9: Cyclic peptide 122 (peptide)
peptide: KKKAXVPRGDTFAXA
modifications: not fully specified; KKKA(Dab(acetyl))VPRGDTFA-(Hcy)-A; thioether bond Dab(acetyl)-Hcy
B10: Cyclic peptide 78 (peptide)
peptide: KKKAXIPRGDVFRXA
modifications: not fully specified; KKKA-(Hcy)-IPRGDVFR(Dab(acetyl))A; thioether bond Hcy-Dab(acetyl)
B11: Cyclic peptide 83 (peptide)
peptide: KKKAXIPRGDTFSXA
modifications: not fully specified; KKKA-(Hcy)-IPRGDTFS(Dab(acetyl))A; thioether bond Hcy-Dab(acetyl)
B12: Cyclic peptide 85 (peptide)
peptide: KKKAXIPRGDTFAXG
modifications: not fully specified; KKKA-(Hcy)-IPRGDTFA(Dab(acetyl))G; thioether bond Hcy-Dab(acetyl)

Each binder was assayed against T1, human integrin αvβ5 (human, UniProt P06756 31-992; P18084 24-719, limits assumed) (assay: SPR, Biacore 3000, peptide immobilised; A = KD 50 nM or less).
T1 construct: Heterodimer flowed as analyte at 30, 100, 300 and 1,000 nM in HEPES buffer with 5 mM MgCl2
T1 sequence (P06756 31-992 limits assumed, chain 1 of 2): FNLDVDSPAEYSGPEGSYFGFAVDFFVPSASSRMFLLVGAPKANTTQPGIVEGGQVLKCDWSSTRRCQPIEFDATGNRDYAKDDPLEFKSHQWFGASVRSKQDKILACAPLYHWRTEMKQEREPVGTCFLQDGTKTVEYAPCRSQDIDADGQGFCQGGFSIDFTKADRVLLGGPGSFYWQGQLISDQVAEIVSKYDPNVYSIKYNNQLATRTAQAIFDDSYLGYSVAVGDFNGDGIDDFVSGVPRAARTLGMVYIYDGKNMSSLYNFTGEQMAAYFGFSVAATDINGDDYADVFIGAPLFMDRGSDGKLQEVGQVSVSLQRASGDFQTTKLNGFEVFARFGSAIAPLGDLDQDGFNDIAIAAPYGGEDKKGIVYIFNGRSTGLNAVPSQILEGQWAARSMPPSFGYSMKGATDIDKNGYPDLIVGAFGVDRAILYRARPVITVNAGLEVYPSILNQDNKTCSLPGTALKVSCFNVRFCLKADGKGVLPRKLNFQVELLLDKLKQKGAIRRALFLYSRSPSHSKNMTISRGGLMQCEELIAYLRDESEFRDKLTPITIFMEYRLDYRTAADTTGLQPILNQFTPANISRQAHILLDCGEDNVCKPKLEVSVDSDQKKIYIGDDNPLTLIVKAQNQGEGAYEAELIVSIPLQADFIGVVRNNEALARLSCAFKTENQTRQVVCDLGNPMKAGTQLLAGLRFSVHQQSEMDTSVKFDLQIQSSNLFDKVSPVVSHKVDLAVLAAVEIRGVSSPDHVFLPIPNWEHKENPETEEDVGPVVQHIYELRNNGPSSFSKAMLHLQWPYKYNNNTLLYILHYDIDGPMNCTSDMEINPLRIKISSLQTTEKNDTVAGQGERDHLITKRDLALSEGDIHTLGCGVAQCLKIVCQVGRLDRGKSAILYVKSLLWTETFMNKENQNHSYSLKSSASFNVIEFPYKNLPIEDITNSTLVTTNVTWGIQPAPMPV
T1 sequence (P18084 24-719 limits assumed, chain 2 of 2): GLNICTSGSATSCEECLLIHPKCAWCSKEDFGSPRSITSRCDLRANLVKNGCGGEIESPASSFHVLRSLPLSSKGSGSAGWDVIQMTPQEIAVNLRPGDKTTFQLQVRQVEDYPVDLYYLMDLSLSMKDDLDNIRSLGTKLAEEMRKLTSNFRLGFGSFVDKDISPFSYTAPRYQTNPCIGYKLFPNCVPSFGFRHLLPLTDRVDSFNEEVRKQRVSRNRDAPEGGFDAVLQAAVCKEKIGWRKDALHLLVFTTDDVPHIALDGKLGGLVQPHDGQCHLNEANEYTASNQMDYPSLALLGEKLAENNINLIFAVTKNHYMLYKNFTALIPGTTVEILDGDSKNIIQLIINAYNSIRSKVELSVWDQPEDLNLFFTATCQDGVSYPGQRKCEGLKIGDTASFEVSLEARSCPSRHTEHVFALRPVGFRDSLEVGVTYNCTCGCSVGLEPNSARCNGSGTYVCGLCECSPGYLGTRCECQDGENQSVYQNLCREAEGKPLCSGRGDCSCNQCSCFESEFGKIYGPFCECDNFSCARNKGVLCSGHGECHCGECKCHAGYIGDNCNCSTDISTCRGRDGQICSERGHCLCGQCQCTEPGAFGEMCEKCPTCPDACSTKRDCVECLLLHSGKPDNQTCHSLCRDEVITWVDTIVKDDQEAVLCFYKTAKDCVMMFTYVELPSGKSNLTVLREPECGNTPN
Description: However, only for the cyclic peptides 125, 126, and 127, in which the number of lysine residues having an amino group as the immobilizing functional group was zero, the amount of the sample solution to be supplied to the sensor chip was set to 500 μL instead of 20 μL. Further, 70 μL of the mixed aqueous solution of 0.2 M EDC and 0.04 M NHS was added to another flow channel of the same sensor chip without immobilizing the sample, and then blocking treatment and washing treatment were carried out. Hereinafter, the obtained immobilization-treated sensor chip is referred to as an “immobilization-treated sensor chip A”.
After adding human integrin αvβ5 for 10 minutes at 25° C., which was diluted to 30 nM using a HEPES buffer solution to which magnesium chloride was added to 5 mM, in each flow channel of the immobilization-treated sensor chip A prepared in (1) above, the same HEPES buffer solution (containing 5 mM magnesium chloride) was allowed to flow as a running buffer for 30 minutes, and measurement was carried out with Biacore 3000. Then, a regeneration treatment of removing human integrin αvβ5 was carried out by allowing a 0.5 M EDTA aqueous solution to flow through each flow channel for 10 minutes. Further, the above-described measurement process consisting of adding integrin for 10 minutes, allowing a running buffer to flow for 30 minutes, carrying out measurement with Biacore 3000, and carrying out regeneration treatment with 0.5 M EDTA aqueous solution was carried out in the same manner for 100 nM human integrin αvβ5, 300 nM human integrin αvβ5, and 1,000 nM human integrin αvβ5. Dissociation constant between the cyclic peptide and human integrin αvβ5 was calculated from the difference between the value measured by Biacore 3000 in the flow channel immobilized with the cyclic peptide and the value measured by Biacore 3000 in the flow channel unimmobilized with the cyclic peptide, in a case where each concentration of human integrin αvβ5 was allowed to flow, and the integrin binding property was evaluated according to the following evaluation standards. It is preferable that the evaluation result satisfies the evaluation standard A, B, or C.

Question: KKK[hCys]IPRGDTF[Dab(acetyl)″]A (thioether 4-12) [Cyclic peptide 60] was tested. Which “dissociation constant (KD)” value did it give?
Answer: Its value is no more than 50 nM.

Question: With KKKKKA[hCys]VPRGDTFA[Dab(acetyl)″]A (thioether 7-16) [Cyclic peptide 111] as the binder, how does the dissociation constant read?
Answer: Its dissociation constant is no more than 50 nM.

Question: A[hCys]VPRGDTFA[Dab(acetyl)″]AKKK (thioether 2-11) [Cyclic peptide 109] was tested. Which dissociation constant did it give?
Answer: The dissociation constant was no more than 50 nM.

Question: KKKKA[hCys]VPRGDTFA[Dab(acetyl)(3)]A (thioether 6-15) [Cyclic peptide 110] was tested. Which dissociation constant did it give?
Answer: The dissociation constant was no more than 50 nM.

Question: A[hCys]IPRGDSFA[Dab(acetyl)″]AKKK (thioether 2-11) [Cyclic peptide 100] was tested. Which dissociation constant did it give?
Answer: Its dissociation constant is no more than 50 nM.

Question: With KKKKKKA[hCys]VPRGDTFA[Dab(acetyl)″]A (thioether 8-17) [Cyclic peptide 112] as the binder, how does the dissociation constant read?
Answer: Its dissociation constant is no more than 50 nM.

Question: For KKKG[hCys]IPRGDTFR[Dab(acetyl)″]A (thioether 5-14) [Cyclic peptide 54], which “dissociation constant (KD)” value is on record?
Answer: Its value is no more than 50 nM.

Question: With KKKG[hCys]IPRGDNFR[Dab(acetyl)(3)]A (thioether 5-14) [Cyclic peptide 1] as the binder, how does the “dissociation constant (KD)” value read?
Answer: The value was no more than 50 nM.

Question: Which dissociation constant does the source give for KKKG[hCys]IPRGDSFA[Dab(acetyl)]G (thioether 5-14) [Cyclic peptide 95] here?
Answer: The dissociation constant was no more than 50 nM.

Question: Which dissociation constant does the source give for KKKG[hCys]VPRGDSFA[Dab(acetyl)]A (thioether 5-14) [Cyclic peptide 98] here?
Answer: Its dissociation constant is no more than 50 nM.

Question: KKKA[hCys]VPRGDTFA[Dab(acetyl)″]G (thioether 5-14) [Cyclic peptide 107] was tested. Which dissociation constant did it give?
Answer: The dissociation constant was no more than 50 nM.

Question: How did the dissociation constant turn out when B1 was run?
Answer: The dissociation constant was no more than 50 nM.

Question: Which dissociation constant does the source give for B2 here?
Answer: Its dissociation constant is no more than 50 nM.

Question: B3 was tested. Which dissociation constant did it give?
Answer: The dissociation constant was no more than 50 nM.

Question: B4 was tested. Which dissociation constant did it give?
Answer: The dissociation constant was no more than 50 nM.

Question: How did the dissociation constant turn out when B5 was run?
Answer: Its dissociation constant is no more than 50 nM.

Question: KKKG[hCys]VPRGDSFA[Dab(acetyl)]G (thioether 5-14) [Cyclic peptide 99] was tested. Which dissociation constant did it give?
Answer: Its dissociation constant is no more than 50 nM.

Question: For B6, which dissociation constant is on record?
Answer: The dissociation constant was no more than 50 nM.

Question: With KKKA[hCys]IPRGDTFR[Dab(acetyl)″]A (thioether 5-14) [Cyclic peptide 56] as the binder, how does the “dissociation constant (KD)” value read?
Answer: The value was no more than 50 nM.

Question: With B7 as the binder, how does the dissociation constant read?
Answer: The dissociation constant was no more than 50 nM.

Question: For KKKA[hCys]VPRGDTFA[Dab(acetyl)″]A (thioether 5-14) [Cyclic peptide 108], which dissociation constant is on record?
Answer: Its dissociation constant is no more than 50 nM.

Question: Which dissociation constant does the source give for KKKA[hCys]VTRGDTFR[Dab(acetyl)]A (thioether 5-14) [Cyclic peptide 89] here?
Answer: Its dissociation constant is no more than 50 nM.

Question: With B8 as the binder, how does the dissociation constant read?
Answer: Its dissociation constant is no more than 50 nM.

Question: With B9 as the binder, how does the dissociation constant read?
Answer: The dissociation constant was no more than 50 nM.

Question: How did the dissociation constant turn out when KKKA[hCys]IPRGDTFA[Dab(acetyl)]A (thioether 5-14) [Cyclic peptide 87] was run?
Answer: Its dissociation constant is no more than 50 nM.

Question: B10 was tested. Which dissociation constant did it give?
Answer: Its dissociation constant is no more than 50 nM.

Question: Which “dissociation constant (KD)” value does the source give for KKKG[hCys]LPRGDNFR[Dab](COCH2)A (thioether 5-14) [Cyclic peptide 27] here?
Answer: Its value is no more than 50 nM.

Question: Which dissociation constant does the source give for KKKA[hCys]IPRGDSFA[Dab(acetyl)]A (thioether 5-14) [Cyclic peptide 92] here?
Answer: Its dissociation constant is no more than 50 nM.

Question: Which dissociation constant does the source give for KKKA[hCys]VPRGDSFA[Dab(acetyl)]A (thioether 5-14) [Cyclic peptide 96] here?
Answer: The dissociation constant was no more than 50 nM.

Question: How did the dissociation constant turn out when KKKG[hCys]IPRGDSFA[Dab(acetyl)]A (thioether 5-14) [Cyclic peptide 94] was run?
Answer: Its dissociation constant is no more than 50 nM.

Question: KKKG[hCys]IPRGDTFR[Dab(acetyl)″]G (thioether 5-14) [Cyclic peptide 55] was tested. Which “dissociation constant (KD)” value did it give?
Answer: Its value is no more than 50 nM.

Question: How did the “dissociation constant (KD)” value turn out when KKKA[hCys]IPRGDNFR[Dab](COCH2)A (thioether 5-14) [Cyclic peptide 2] was run?
Answer: Its value is no more than 50 nM.

Question: KKKG[hCys]IPRGDTFA[Dab(acetyl)]A (thioether 5-14) [Cyclic peptide 86] was tested. Which dissociation constant did it give?
Answer: The dissociation constant was no more than 50 nM.

Question: Which dissociation constant does the source give for KKKA[hCys]IPRGDAFA[Dab(acetyl)]A (thioether 5-14) [Cyclic peptide 90] here?
Answer: The dissociation constant was no more than 50 nM.

Question: How did the dissociation constant turn out when KKKA[hCys]IPRGDTFG[Dab(acetyl)]A (thioether 5-14) [Cyclic peptide 88] was run?
Answer: The dissociation constant was no more than 50 nM.

Question: Which dissociation constant does the source give for B11 here?
Answer: Its dissociation constant is no more than 50 nM.

Question: How did the dissociation constant turn out when KKKA[hCys]IPRGDSFA[Dab(acetyl)]G (thioether 5-14) [Cyclic peptide 93] was run?
Answer: The dissociation constant was no more than 50 nM.

Question: Which dissociation constant does the source give for KKKG[hCys]VPRGDTFA[Dab(acetyl)″]A (thioether 5-14) [Cyclic peptide 106] here?
Answer: The dissociation constant was no more than 50 nM.

Question: Which dissociation constant does the source give for KKKA[hCys]VPRGDAFA[Dab(acetyl)]A (thioether 5-14) [Cyclic peptide 91] here?
Answer: The dissociation constant was no more than 50 nM.

Question: Which dissociation constant does the source give for B12 here?
Answer: Its dissociation constant is no more than 50 nM.

Question: How did the dissociation constant turn out when KKKA[hCys]VPRGDSFA[Dab(acetyl)]G (thioether 5-14) [Cyclic peptide 97] was run?
Answer: The dissociation constant was no more than 50 nM.

Question: Which dissociation constant does the source give for KKKG[hCys]VPRGDTFA[Dab(acetyl)″]G (thioether 5-14) [Cyclic peptide 105] here?
Answer: Its dissociation constant is no more than 50 nM.

Question: With KKK[hCys]VPRGDTFA[Dab(acetyl)″] (thioether 4-13) [Cyclic peptide 104] as the binder, how does the dissociation constant read?
Answer: Its dissociation constant is no more than 50 nM.

Question: For KKK[hCys]IPRGDTFR[Dab(acetyl)″] (thioether 4-13) [Cyclic peptide 61], which dissociation constant is on record?
Answer: The dissociation constant was no more than 50 nM.

Question: KKK[hCys]IPRGDTFA[Dab(acetyl)″] (thioether 4-13) [Cyclic peptide 62] was tested. Which dissociation constant did it give?
Answer: The dissociation constant was no more than 50 nM.

Question: Which “dissociation constant (KD)” value does the source give for KKK[hCys]IPRGDNFR[Dab(acetyl)(3)] (thioether 4-13) [Cyclic peptide 11] here?
Answer: Its value is no more than 50 nM.

Question: With KKK[hCys]IPRGDSFA[Dab(acetyl)″] (thioether 4-13) [Cyclic peptide 101] as the binder, how does the dissociation constant read?
Answer: The dissociation constant was no more than 50 nM.

Question: Which dissociation constant does the source give for KKK[hCys]VPRGDSFA[Dab(acetyl)″] (thioether 4-13) [Cyclic peptide 102] here?
Answer: Its dissociation constant is no more than 50 nM.

Question: [hCys]VPRGDTFA[Dab(acetyl)″]KKK (thioether 1-10) [Cyclic peptide 103] was tested. Which dissociation constant did it give?
Answer: Its dissociation constant is no more than 50 nM.

Reference: patent publication US20220089647A1 (FUJIFILM, published 2022)
